{"source": "the DeepSol protein solubility set"}
{"assay": "soluble on expression in E. coli; label from the status in PepcDB or PDB records"}
{"sequence": "MSLNVVVQKYGGSSVATPERIKNVAQRIKKKVDEGYKVVVVVSAMGKTTDNLIKLAKEISPRPDSRELDMLLATGEQVSAALLSMALKDLGVKAKSLNAFQVKIKTTPHHTSARIVDIDDSVIRENLKDYDVLVVTGFQGVNEHGDLTTLGRGGSDTSAVALAAKLRVPCEIYSDVDGIYTCDPRVHPRAKKLAYITYDEALELTALGAKVLHSRSVEIAKKYGIPIYCASSFTEEEGTMVVERLPEWLEEPVVTGATISHGQIKVSISFLPKDVKYITAIFEEVGKRALNVDMISLVPSNGKVFLSFTILEDHKEDLDEALKEALRDVEGWKSTYEGGFAKLSIVGVGMRTSPGVAARFFEALERAGVTPELVTTSEIKISCLVPEEKAEEALKSVIEEFELEGHHHHHH", "soluble on expression in E. coli": "soluble"}
{"sequence": "MSLNYKNYTVMLVDDEQPILNSLKRLIKRLGCNIITFTSPLDALEALKGTSVQLVISDMRMPEMGGEVFLEQVAKSYPDIERVVISGYADAQATIDAVNRGKISRFLLKPWEDEDVFKVVEKGLQLAFLREENLRLQEETEAKNKQEGHHHHHH", "soluble on expression in E. coli": "soluble"}
{"sequence": "MSLNYSHAFHAGNHADVLKHIVLLALLDGLVRKETPFFVLDSHAGRGRYLLSAGESRNTREAESGVMRLIARPQRLEVIKRYVDVVQADNVSQTRAASTPMHISRYPGSSLLAAQVCRAQDRMVFCELHPKEAAALNALFVHDPRVRVHAGDGYAAVRAFLPPKVGTQRIGRGLVFIDPPYEAQDAEYPLVLGALRETLTRWPQAICAVWYPIKQRRRLQPFFRKAVGLPVRSVLIAELLVRLDDSPLRLNGSGMLLLNVPWQFDQLLAPALPVLKTQLGESGARTRLEWLKVPQEGHHHHHH", "soluble on expression in E. coli": "not soluble"}
{"sequence": "MSLNYSVLPPEINSLRMFTGAGSAPMLAASVAWDRLAAELAVAASSFGSVTSGLAGQSWQGAAAAAMAAAAAPYAGWLAAAAARAAGASAQAKAVASAFEAARAATVHPMLVAANRNAFVQLVLSNLFGQNAPAIAAAEAMYEQMWAADVAAMVGYHGGASAAAAQLSSWSIGLQQALPEGHHHHHH", "soluble on expression in E. coli": "soluble"}
{"sequence": "MSLPPSQSDRDPFSVTMCHSTLASLPLVYACSGCSSVAQLANTFAVRLDRSGAAEMSCISGVGGGVPALTRVARSGRPILALDGCALSCVKACLASVDVVPDRHLVLNRLGATKRQHGVCTEAEEAETWDAVQQALAEVRGAMEGHHHHHH", "soluble on expression in E. coli": "soluble"}
{"sequence": "MSLQAANLRQSRSMTLGLIVTEIINPYFAELAMAVDQIAHDAGYTIFIGYSRDHADRQHEIISSMIERQVDGILLLPAPDTDPEKLAKQVNAAGVPVVLLARRFAGFDYVGSENVKGATILGDHLSALGCRSVAFLGGLTASSLAEREEGLRASLEPRGCDVWSVDEFRSPITPEGGVAAVGRLFDQGKLPDAIIAYNDAVAQGIYDEMRRRGLEPGRDLAVASFDDTRIAASQVPPMTSVAGFPQEIGAKGAEMLMTRLADGNEDIPTQLTLIQPQLKIRSSTATWRREGHHHHHH", "soluble on expression in E. coli": "soluble"}
{"sequence": "MSLQAVTLSVLVVEDTDCERFYITHLLRQFGWLVESRSNGKAALDYLQQNEVHILVSDWRMPEMSGIELCQIVKNNHLPPFVILLTANNQTADIVLGIEAGADDFICKPFLPELLKVRMLAAMRIVQLQHNLSRNEGHHHHHH", "soluble on expression in E. coli": "not soluble"}
{"sequence": "MSLQDLTINAIGAQGDGLARTADGKPAFVPLTLPGEVVRAKMDGARGEVVEILAPSPERVAPACRHYGVCGGCALQHWAAEPYRAWKAEQVRLQLSMEGLETEILPTFAAPPASRRRVALHARKGGKGQGARLGFKERRSWNLVSIEECPVTDPRLVAALPALARLAEPFLEHPKSAPTLHVTLTATGLDIDITGVERKSGGLSADARMRAAMAAGEGDFARVTLAGETIYGARQPLVKLGQAVVALPPGSFLQAVPAAEKAMVELAVAEAQGASRVADLYCGVGTFTFPLAEVAQVYAAEMSAPAITALKAAIGGAPGLKPITAEARDLVRRPVLSTELAKTDVVVIDPPRAGAAEQTVEIAKSKVAKVLGVSCNPQTFAKDARVLVDAGFKLVRVTPVDQFVWSPHIELVGVFTREGHHHHHH", "soluble on expression in E. coli": "soluble"}
{"sequence": "MSLQEWTKEDSLRLRKLLDSDQELNLNQDAVRQIDFGSAVGTPRMSVEKKWMLPDESLPEALPKPKVVLSLMPYKANTPYNWDPVFQKKIRMDKNTWRGDPHYEMRHQRSYSNWAHNPMAGGVRKSLEEIRASGVRFRQLSERANGMMVNSVVMDSPIPLFGGSGVYINGGTIGGLDLMAVFTKNFWDKKGKERRERTLEVLRTYGDSTTVLINRPIEQIAREGHHHHHH", "soluble on expression in E. coli": "soluble"}
{"sequence": "MSLQINVNPQAALSQNAIVNNSSFSLVSKDVRSAQYVALVDSGRNNIEPIHPRQNVRITLENALAEQFGSQGFRLSVNSENTITLEIQELLVSVKHSIMENQMDGSVVLEITAETPRGKLVKSYTGTAKRTGVLSASNDEIETVLNDVINTVLKEIANDAELQNYMQERFNGEGHHHHHH", "soluble on expression in E. coli": "soluble"}
{"sequence": "MSLQKQRFCLDTTAITDSDVRKSLGVSNISESAEKIMDIIAQARVQLDISCHIPYDTVYKELVGFLTREGCAPETLIKVDTWLVKKTPNRYEIKIPAEIFYEYIKDLRERINKGMRISENAMYETALEAYILSKPDEKDREDVLNEVLSKTVNSFRVKYRNALRGGTLDSAPDLDVLLLAKELDAAVVANDEGIEKWAQRLGLRFVNARDFPFILQEYLDLWDKKEGHHHHHH", "soluble on expression in E. coli": "soluble"}
{"sequence": "MSLQNMETRYTHSPADIRHYSTEQLRDEFLVEKVFIPGAISLTYTHNDRMIFGGVTPTTEELEIILDKELGVDYFLERRELGVINIGGPGFIEIDGAKETMKKQDGYYIGKETKHVRFSSENPDNPAKFYISCVPAHHKYPNVKISIDEITPMETGDPLTLNQRKIYQYIHPNVCESCQLQMGYTILEPGSAWNTMPCHTHERRMEAYVYFDMEEDTRIFHMMGKPDETKHLVMSNEQAAISPSWSIHSGVGTSNYSFIWAMCGENITYTDMDMVAMDQLKEGHHHHHH", "soluble on expression in E. coli": "soluble"}
{"sequence": "MSLQPILQLLEKDEQREALHYFIEKLPQLKEATESMEEKITFIQHVMNDKQTLESLFAEWEAKAAPFRLTSEHFEAIATLIQLLPTLVQWLQKAEEFVSFVTSVMNDRESMAYLTKGIKDIVPIGKGLDILKETNERFACERDSTTVSLLRIYRLLKHPIVQDGVKYIETLLDVASKHK", "soluble on expression in E. coli": "not soluble"}
{"sequence": "MSLQRYFIELTKQQIEEAPTFSITGEEVHHIVNVMRMNEGDQIICCSQDGFEAKCELQSVSKDKVSCLVIEWTNENRELPIKVYIASGLPKGDKLEWIIQKGTELGAHAFIPFQAARSVVKLDDKKAKKKRERWTKIAKEAAEQSYRNEVPRVMDVHSFQQLLQRMQDFDKCVVAYEESSKQGEISAFSAIVSSLPKGSSLLIVFGPEGGLTEAEVERLTEQDGVTCGLGPRILRTETAPLYALSAISYQTELLRGDQEGGSHHHHHH", "soluble on expression in E. coli": "soluble"}
{"sequence": "MSLQSDMLAQSDMLACREMIKEGSHTFHAASKVLPRRISDPAIALYAFCRVADDAVDLGLDRAAAVELLKDRLDRACRGVPRAYPSDRAFADVVARFSIPPAIPEALIEGLEWDAQGRRFETLSDLYSYCARVAGTVGVMMTLVMGQRKPDIVARACDLGCAMQLTNIARDIGEDARNGRIYMPLSWMREAGLDPETWLANPKFTPEIASIVKRLIDTADALYDRATLGIANLPRSCRPGIFAARALYAEIGREVERSGLDSVSSRAVVSTGRKLAVLARLLAFQETEWAPAKYLPAKFGDMEETKFLVDAVIAHPVREGHHHHHH", "soluble on expression in E. coli": "soluble"}
{"sequence": "MSLQSFRVQCPTSTITHNPNSNFPGGIKCQQISGGDGYSTMADGVQTYMFSFGPLSGLADIRNGLPGTQPASIFNTLGNPYTDTTFNGAVGLTPDPDSVPPNQIDGHVDPRPIMDIGVMNGNIPAPLMAIDEDDEFFLTLTNVGMIMRPDLFERHTVHFHGYPNASSFYDGVPDASVAINIGGSFTYYYLAPDAGTYFWHCHITPPEHLQMGMVGQIYVRPRQDRVPAGAALYTALVGQQADLRTACGTTDVLCSTPLPPTNAVKRLNNKNGTPTLYAYNDGDGSTAYDVEYPIQIHGFDPNFHFIGMTFNPEPFTDMKDKYFMLNGRSYPDTITPGPMTTPSSDGALHYSQPLPTVINIPAGGKALLRISNLDVTEYQTLASLGIPMHVIGINARLLRDMAGGDMTYYANSITLGGGESLDVLLDASDTSSYPRGSTFYLYTPNLDHLSNDAENFGGLMTEVHICGAVDPATKQCTEGHHHHHH", "soluble on expression in E. coli": "not soluble"}
{"sequence": "MSLQSVKVNIPFWLTGSPNVGFEYTLTRQLTVNGEVLWMPYLFKKHEEVFRALQSSVELRYYVNPRNFYTNDSWDGFYIGPYAMYGNFNIGLLKHNDPLQSYRRKGWGVSGGISTGYKFAFNSRWGLDLNIGLGYAHLQYNKYYLGGEYVNFPLERKKTKRWIGPTKFGINLTYNIFREGHHHHHH", "soluble on expression in E. coli": "not soluble"}
{"sequence": "MSLQVEKISIIGLGLIGGSLAKALKEKLGIESITAVDINEKSLSQALKEGFIKEGFTELNESVYNSDIIFICTPVKDAVEYITRLHGKVKAGCILTDTASTKGEIIDYVNSLDNPPCFIGGHPMAGTEKAGFSSSFSHLFENAYYIMSPSKNCPEESLEYLAEIIRGIGAIPIKLDSKEHDIITATISHVPHVIASALVNLVKFSDSPDGKMQTLAAGGFKDITRIASSNPKMWENIILSNKEIVKSTLNKFTETINTFIEYIDNENSNGIYNFFDSAKKFRDSIPNNRKGLIEPQNELIVDVVDKPGIIGEIATILGNNGINIKNINVSNSREFEQGCLRITLPDSGSVAEAYELLAKKGYKVFKIEGHHHHHH", "soluble on expression in E. coli": "soluble"}
{"sequence": "MSLRERNQVIPVLPPQERPRPTVVFDCEDFLVKKRFSFFNLDFLVTGRAFADLFLFHAAHIYELVHVSGSPGSFSRLLLHRIDPYGCISYKVYCKDKKTFSSEHLNRPLQRVMVVSTRENEYHKDFDGNTIKLERWSGDPEHGLLDLLNFLHSLHFMGIKDFRGTLRSYLGEGHHHHHH", "soluble on expression in E. coli": "not soluble"}
{"sequence": "MSLRFNVLKYIRTTKANIQTIAMPLTTKPLSLKINAALFDVDGTIIISQPAIAAFWRDFGKDKPYFDAEHVIHISHGWRTYDAIAKFAPDFADEEYVNKLEGEIPEKYGEHSIEVPGAVKLCNALNALPKEKWAVATSGTRDMAKKWFDILKIKRPEYFITANDVKQGKPHPEPYLKGRNGLGFPINEQDPSKSKVVVFEDAPAGIAAGKAAGCKIVGIATTFDLDFLKEKGCDIIVKNHESIRVGEYNAETDEVELIFDDYLYAKDDLLKWEGHHHHHH", "soluble on expression in E. coli": "not soluble"}
{"sequence": "MSLRGMRIDAYIAEHARKNPDQLALEDGKKSISYSCLDEDINKVASSLDGFEHCKFAILAESGIQYVKILMAVYRSGNIAIPLPIEMQGRSLERILDTACINNIIATKKQYSRFGDGFFERFGTVIVVSDDTSVETLSRRMILERNDPRLRLVLYTSGTTGTPKGVMLSDKNLVSNARSITGILSIGSKDKAALVISPHHAFGNSIINSHLMAGSSIQIGTMNFIDPVFSLIESGVSIFYGVPSTYRILLKYPERFRKAFQNVRTAASAGGAMDRTVVRSIRELSPDTQILPMYGQTEATARLSYLPAEDVDEFIDTIGKAIPGVTLEVFDTENRPVEPGVTGELVARGDNILLGYLNDEAATEKKIIDGWLHTGDLAQKLRCGYIKLLGRKDDLIKIGDHRVNPREIEKEIEMNNEVSSVFVVPVSHELMGNAISLMVIPNERTEIDTIFSFCRKNLPGYLYPREILFIDHLPLSENGKISNRSIIEEYQHVKASEGHHHHHH", "soluble on expression in E. coli": "soluble"}
{"sequence": "MSLRKHCIAIGGGGWMMGENPSPLYQYILSLSGKENPNICFLPTATGDADEVIERFYNAKLSENVTHFPLFKFDAGWKETLFEQDIIYVGGGNTRSMLAIWREWGIDRILKQCYEQGIIICGMSAGAICWFEFAVTDSDPEAYQVMRCLGLIDGLAAAHFSHVGEKFEVFQAFARSQPSITCYGIHDYAALHFVDGKLLATVTSFPDAGVLVKTGNDENILRGEGHHHHHH", "soluble on expression in E. coli": "soluble"}
